The numbers were not newly measured in article PMC4652184, which cites them from elsewhere.

By Kd is commonly meant the free concentration of one partner at which half of the binding sites on the other are occupied at equilibrium, for simple one-to-one binding.

In this data set the target is Slit2 (Homo sapiens) (UniProt O94813).
Slit2 (Homo sapiens), sequence (O94813 31-1529): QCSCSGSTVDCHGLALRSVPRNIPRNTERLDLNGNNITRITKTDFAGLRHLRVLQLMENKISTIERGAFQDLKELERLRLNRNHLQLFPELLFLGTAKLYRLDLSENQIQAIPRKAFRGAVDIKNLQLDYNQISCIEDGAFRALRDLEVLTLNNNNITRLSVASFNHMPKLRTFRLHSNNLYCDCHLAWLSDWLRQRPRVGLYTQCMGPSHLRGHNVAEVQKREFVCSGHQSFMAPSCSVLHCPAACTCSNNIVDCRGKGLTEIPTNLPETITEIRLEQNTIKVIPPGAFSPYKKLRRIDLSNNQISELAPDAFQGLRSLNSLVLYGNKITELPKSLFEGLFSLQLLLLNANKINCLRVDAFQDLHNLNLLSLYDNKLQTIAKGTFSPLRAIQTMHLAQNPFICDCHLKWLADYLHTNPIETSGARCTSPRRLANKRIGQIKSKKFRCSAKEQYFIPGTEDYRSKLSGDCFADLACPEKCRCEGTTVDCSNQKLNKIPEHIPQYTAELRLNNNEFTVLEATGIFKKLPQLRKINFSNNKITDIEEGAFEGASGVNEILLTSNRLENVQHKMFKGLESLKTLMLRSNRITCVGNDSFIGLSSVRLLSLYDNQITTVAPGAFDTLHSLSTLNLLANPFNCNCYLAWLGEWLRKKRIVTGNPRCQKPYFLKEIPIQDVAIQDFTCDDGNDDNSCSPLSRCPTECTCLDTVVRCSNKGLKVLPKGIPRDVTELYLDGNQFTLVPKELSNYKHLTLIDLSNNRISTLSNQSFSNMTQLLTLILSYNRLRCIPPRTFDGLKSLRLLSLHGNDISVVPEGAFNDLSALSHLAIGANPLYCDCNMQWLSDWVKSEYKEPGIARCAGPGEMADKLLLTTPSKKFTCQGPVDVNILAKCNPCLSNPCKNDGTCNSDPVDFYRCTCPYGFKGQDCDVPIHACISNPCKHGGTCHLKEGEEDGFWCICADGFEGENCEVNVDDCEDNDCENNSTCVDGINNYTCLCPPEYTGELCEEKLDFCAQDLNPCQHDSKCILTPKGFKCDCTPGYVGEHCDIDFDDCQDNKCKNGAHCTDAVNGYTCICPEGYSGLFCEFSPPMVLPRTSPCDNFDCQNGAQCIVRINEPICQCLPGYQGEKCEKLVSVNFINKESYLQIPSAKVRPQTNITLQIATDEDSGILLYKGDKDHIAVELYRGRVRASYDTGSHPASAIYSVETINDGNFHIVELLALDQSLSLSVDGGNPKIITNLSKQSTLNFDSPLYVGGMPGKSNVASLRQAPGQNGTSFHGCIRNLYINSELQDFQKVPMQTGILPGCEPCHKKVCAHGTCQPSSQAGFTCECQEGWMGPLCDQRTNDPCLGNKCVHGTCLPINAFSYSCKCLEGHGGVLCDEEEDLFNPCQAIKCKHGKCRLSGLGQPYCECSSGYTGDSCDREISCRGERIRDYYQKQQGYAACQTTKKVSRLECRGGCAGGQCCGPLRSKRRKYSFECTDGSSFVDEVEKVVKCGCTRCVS

Robo1, sequence (Q9Y6N7 26-897): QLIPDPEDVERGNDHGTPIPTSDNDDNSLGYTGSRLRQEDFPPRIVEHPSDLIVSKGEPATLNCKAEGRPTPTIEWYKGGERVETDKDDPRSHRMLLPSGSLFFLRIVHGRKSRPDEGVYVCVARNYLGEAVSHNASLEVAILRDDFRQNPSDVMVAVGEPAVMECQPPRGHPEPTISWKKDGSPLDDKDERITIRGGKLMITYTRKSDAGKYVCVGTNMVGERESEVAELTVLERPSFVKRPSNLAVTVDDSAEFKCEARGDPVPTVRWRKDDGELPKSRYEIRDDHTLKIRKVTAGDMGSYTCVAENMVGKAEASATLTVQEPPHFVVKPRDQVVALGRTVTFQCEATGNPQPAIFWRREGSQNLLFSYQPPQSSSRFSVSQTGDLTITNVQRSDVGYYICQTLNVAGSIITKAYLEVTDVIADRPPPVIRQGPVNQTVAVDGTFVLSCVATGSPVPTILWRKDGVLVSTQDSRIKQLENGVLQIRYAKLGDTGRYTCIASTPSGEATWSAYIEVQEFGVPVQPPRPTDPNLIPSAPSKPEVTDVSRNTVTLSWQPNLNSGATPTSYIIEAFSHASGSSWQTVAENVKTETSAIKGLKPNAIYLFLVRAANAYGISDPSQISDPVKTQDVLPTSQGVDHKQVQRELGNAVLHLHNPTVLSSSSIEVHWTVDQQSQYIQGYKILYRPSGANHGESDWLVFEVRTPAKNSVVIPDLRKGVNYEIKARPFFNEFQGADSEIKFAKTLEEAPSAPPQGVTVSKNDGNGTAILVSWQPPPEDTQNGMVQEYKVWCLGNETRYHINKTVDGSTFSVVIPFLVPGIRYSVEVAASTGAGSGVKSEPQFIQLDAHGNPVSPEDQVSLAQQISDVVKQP

Consider Robo1 (from UniProt Q9Y6N7), for which the dissociation constant Kd was 4.5 nM.
